# Experimental data reported in patent US20040265337A1, “Method of generating an immune response and compositions used for same” (priority 2002, published 2004).
# T1: HD-5 (Homo sapiens, UniProt Q01523)
# T1 sequence (Q01523 63-94 limits assumed): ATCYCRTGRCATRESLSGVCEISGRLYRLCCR
# B1: alpha 1-antichymotrypsin: serpin, inhibitor of defensins (protein, UniProt P01011 24-423, looked up)
# Alpha-1-antichymotrypsin: HPNSPLDEENLTQENQDRGTHVDLGLASANVDFAFSLYKQLVLKAPDKNVIFSPLSISTALAFLSLGAHNTTLTEILKGLKFNLTETSEAEIHQSFQHLLRTLNQSSDELQLSMGNAMFVKEQLSLLDRFTEDAKRLYGSEAFATDFQDSAAAKKLINDYVKNGTRGKITDLIKDLDSQTMMVLVNYIFFKAKWEMPFDPQDTHQSRFYLSKKKWVMVPMMSLHHLTIPYFRDEELSCTVVELKYTGNASALFILPDQDKMEEVEAMLLPETLKRWRDSLEFREIGELYLPKFSISRDYNLNDILLQLGIEEAFTSKADLSGITGARNLAVSQVVHKAVLDVFEEGTEASAATAVKITLLSALVETRTIVRFNRPFLMIIVPTDTQNIFFMSKVTNPKQA
# B2: HD-5: human defensin 5, anti-microbial peptide of the human intestine (protein, UniProt Q01523 20-94, looked up)
# Defensin alpha 5: ESLQERADEATTQKQSGEDNQDLAISFAGNGLSALRTSGSQARATCYCRTGRCATRESLSGVCEISGRLYRLCCR
# modifications: Defensin-5
# notes: human defensin 5, anti-microbial peptide of the human intestine
# How the values were obtained:
# trypsin = conditions: in vitro; cited from earlier work
# HD-5 = target: T1, HD-5; conditions: in vitro, against Salmonella enterica serovar Typhimurium; cited from earlier work
# human CEA antigen = assay: Cytotoxicity (CTL) assays in HD-5 transgenic mice immunized orally with the Salmonella based CEA-DNA vaccine; type: in vivo; conditions: oral immunization, defensin inhibitor co-formulated or expressed by the strain
# From the text: HD-5 inhibitors enhance efficacy of whole organism vaccines such as Salmonella enterica serovar Typhimurium. Human defensin 5 (HD-5), is the major defensin in humans which is bactericidal for Salmonella typhimurium infection. HD-5 transgenic mice are dramatically more resistant to Salmonella typhimurium infection providing a model system to study effectiveness of Salmonella typhimurium as a platform vaccine carrier in the presence of inhibitors of HD-5. See Gosh D. et al., Nature Immunology, 3:583 (2002); Zasloff M, Nature Immunology, 3:508 (2002). HD-5 inhibitors increase efficacy of the Salmonella enterica based human CEA-DNA vaccine. Human CEA (carcinoembryonic antigen) is a tumor antigen for which protective immunity can be induced by vaccination with a live attenuated Salmonella enterica vaccine. See Xiang R. et al., Clinical Cancer Research, 7: 856s (2001). Efficacy of the vaccine is measured by conducting cytotoxicity (CTL) assays in HD-5 transgenic mice to measure immune response to the human CEA antigen. CTL assays are conducted in mice immunized orally with various doses of the vaccine (RemeStim-CEA), with or without addition of the HD-5 inhibitor. […]
# [1] = tested on: Salmonella enterica serovar Typhimurium; conditions: cited from earlier work
Molecule,"inhibition of the bactericidal activity of the mature, active defensin (HD-5)",further results
"N=C(N)c1ccc(CS(=O)(=O)F)cc1 [APMSF, 4-amidinophelylmethane sulfonyl-fluoride]",,inhibition of maturation of pro-HD-5 to mature HD-5 by trypsin (trypsin): inhibit maturation of pro-HD-5 to mature HD-5
Dermatan sulfate [reference compound],inactivates alpha-defensin anti-bacterial activity,effectiveness of the Salmonella based CEA-DNA vaccine as measured by cytotoxicity assays (human CEA antigen): enhances the effectiveness
"Pro-piece of HD-5: pro-domain of human HD-5 (amino acids 20-62), HD-5 peptide inhibitor (ESLQERADEATTQKQSGEDNQDLAISFAGNGLSALRTSGSQAR)",inhibit the bactericidal activity,
"alpha 1-proteinase inhibitor: serpin, inhibitor of defensins",inhibit the bactericidal activity,
alpha 2-macroglobulin: protein inhibitor of defensins,inhibit the bactericidal activity,
B1,inhibit the bactericidal activity,
B2,,bactericidal activity against Salmonella Typhimurium [1]: bactericidal
